Experimental data as given in publication PMC10840093.
Like-named read-outs stand apart in the source and are kept apart here.

Measured: degradation_or_half_life

LSD1: LSD1-3KR (K424, K432, K481)
decreases: ubiquitination at K424 | ubiquitination at K432 | ubiquitination at K481
